Measurements as given in patent publication US20250099534A1 (TECHNION RESEARCH AND DEVELOPMENT FOUNDATION, published 2025).
Starred links: 1 amine or outer side, 2 acyl side, 3 side chain; linkers in the order of their positions; H or OH if unused. Positions of bridges follow the written chain, without caps; N, C: chain ends. mBz = 3-(methylene)benzoyl on the N-terminal amine, O=C(c1cccc(C[*:3])c1)[*:2]

B1: 3 (peptide)
peptide: mBz-LCIWIGSSKNPYILCG-NH2
modifications: thioether N-15
SMILES: CC[C@H](C)[C@@H]1NC(=O)[C@H](Cc2c[nH]c3ccccc23)NC(=O)[C@H]([C@@H](C)CC)NC(=O)[C@H](CS)NC(=O)[C@H](CC(C)C)NC(=O)c2cccc(c2)CSC[C@@H](C(=O)NCC(N)=O)NC(=O)[C@H](CC(C)C)NC(=O)[C@H]([C@@H](C)CC)NC(=O)[C@H](Cc2ccc(O)cc2)NC(=O)[C@@H]2CCCN2C(=O)[C@H](CC(N)=O)NC(=O)[C@H](CCCCN)NC(=O)[C@H](CO)NC(=O)[C@H](CO)NC(=O)CNC1=O
notes: also called CP1-L2C; cyclic peptide 3
B2: 4 (peptide)
peptide: mBz-LLCWIGSSKNPYILCG-NH2
modifications: thioether N-15
SMILES: CC[C@H](C)[C@@H]1NC(=O)[C@H](Cc2c[nH]c3ccccc23)NC(=O)[C@H](CS)NC(=O)[C@H](CC(C)C)NC(=O)[C@H](CC(C)C)NC(=O)c2cccc(c2)CSC[C@@H](C(=O)NCC(N)=O)NC(=O)[C@H](CC(C)C)NC(=O)[C@H]([C@@H](C)CC)NC(=O)[C@H](Cc2ccc(O)cc2)NC(=O)[C@@H]2CCCN2C(=O)[C@H](CC(N)=O)NC(=O)[C@H](CCCCN)NC(=O)[C@H](CO)NC(=O)[C@H](CO)NC(=O)CNC1=O
notes: also called CP1-I3C; cyclic peptide 4
B3: 5 (peptide)
peptide: mBz-LLICIGSSKNPYILCG-NH2
modifications: thioether N-15
SMILES: CC[C@H](C)[C@@H]1NC(=O)[C@H](CS)NC(=O)[C@H]([C@@H](C)CC)NC(=O)[C@H](CC(C)C)NC(=O)[C@H](CC(C)C)NC(=O)c2cccc(c2)CSC[C@@H](C(=O)NCC(N)=O)NC(=O)[C@H](CC(C)C)NC(=O)[C@H]([C@@H](C)CC)NC(=O)[C@H](Cc2ccc(O)cc2)NC(=O)[C@@H]2CCCN2C(=O)[C@H](CC(N)=O)NC(=O)[C@H](CCCCN)NC(=O)[C@H](CO)NC(=O)[C@H](CO)NC(=O)CNC1=O
notes: also called CP1-W4C; cyclic peptide 5
B4: 6 (peptide)
peptide: mBz-LLIWCGSSKNPYILCG-NH2
modifications: thioether N-15
SMILES: CC[C@H](C)[C@@H]1NC(=O)[C@H](CC(C)C)NC(=O)[C@H](CC(C)C)NC(=O)c2cccc(c2)CSC[C@@H](C(=O)NCC(N)=O)NC(=O)[C@H](CC(C)C)NC(=O)[C@H]([C@@H](C)CC)NC(=O)[C@H](Cc2ccc(O)cc2)NC(=O)[C@@H]2CCCN2C(=O)[C@H](CC(N)=O)NC(=O)[C@H](CCCCN)NC(=O)[C@H](CO)NC(=O)[C@H](CO)NC(=O)CNC(=O)[C@H](CS)NC(=O)[C@H](Cc2c[nH]c3ccccc23)NC1=O
notes: also called CP1-I5C; cyclic peptide 6
B5: 7 (peptide)
peptide: mBz-LLIWICSSKNPYILCG-NH2
modifications: thioether N-15
SMILES: CC[C@H](C)[C@@H]1NC(=O)[C@H](Cc2c[nH]c3ccccc23)NC(=O)[C@H]([C@@H](C)CC)NC(=O)[C@H](CC(C)C)NC(=O)[C@H](CC(C)C)NC(=O)c2cccc(c2)CSC[C@@H](C(=O)NCC(N)=O)NC(=O)[C@H](CC(C)C)NC(=O)[C@H]([C@@H](C)CC)NC(=O)[C@H](Cc2ccc(O)cc2)NC(=O)[C@@H]2CCCN2C(=O)[C@H](CC(N)=O)NC(=O)[C@H](CCCCN)NC(=O)[C@H](CO)NC(=O)[C@H](CO)NC(=O)[C@H](CS)NC1=O
notes: also called CP1-G6C; cyclic peptide 7
B6: 8 (peptide)
peptide: mBz-LLIWIGCSKNPYILCG-NH2
modifications: thioether N-15
SMILES: CC[C@H](C)[C@@H]1NC(=O)[C@H](Cc2c[nH]c3ccccc23)NC(=O)[C@H]([C@@H](C)CC)NC(=O)[C@H](CC(C)C)NC(=O)[C@H](CC(C)C)NC(=O)c2cccc(c2)CSC[C@@H](C(=O)NCC(N)=O)NC(=O)[C@H](CC(C)C)NC(=O)[C@H]([C@@H](C)CC)NC(=O)[C@H](Cc2ccc(O)cc2)NC(=O)[C@@H]2CCCN2C(=O)[C@H](CC(N)=O)NC(=O)[C@H](CCCCN)NC(=O)[C@H](CO)NC(=O)[C@H](CS)NC(=O)CNC1=O
notes: also called CP1-S7C; cyclic peptide 8
B7: 9 (peptide)
peptide: mBz-LLIWIGSCKNPYILCG-NH2
modifications: thioether N-15
SMILES: CC[C@H](C)[C@@H]1NC(=O)[C@H](Cc2c[nH]c3ccccc23)NC(=O)[C@H]([C@@H](C)CC)NC(=O)[C@H](CC(C)C)NC(=O)[C@H](CC(C)C)NC(=O)c2cccc(c2)CSC[C@@H](C(=O)NCC(N)=O)NC(=O)[C@H](CC(C)C)NC(=O)[C@H]([C@@H](C)CC)NC(=O)[C@H](Cc2ccc(O)cc2)NC(=O)[C@@H]2CCCN2C(=O)[C@H](CC(N)=O)NC(=O)[C@H](CCCCN)NC(=O)[C@H](CS)NC(=O)[C@H](CO)NC(=O)CNC1=O
notes: also called CP1-S8C; cyclic peptide 9
B8: 10 (peptide)
peptide: mBz-LLIWIGSSKCPYILCG-NH2
modifications: thioether N-15
SMILES: CC[C@H](C)[C@@H]1NC(=O)[C@H](Cc2c[nH]c3ccccc23)NC(=O)[C@H]([C@@H](C)CC)NC(=O)[C@H](CC(C)C)NC(=O)[C@H](CC(C)C)NC(=O)c2cccc(c2)CSC[C@@H](C(=O)NCC(N)=O)NC(=O)[C@H](CC(C)C)NC(=O)[C@H]([C@@H](C)CC)NC(=O)[C@H](Cc2ccc(O)cc2)NC(=O)[C@@H]2CCCN2C(=O)[C@H](CS)NC(=O)[C@H](CCCCN)NC(=O)[C@H](CO)NC(=O)[C@H](CO)NC(=O)CNC1=O
notes: also called CP1-N10C; cyclic peptide 10
B9: 11 (peptide)
peptide: mBz-LLIWIGSSKNCYILCG-NH2
modifications: thioether N-15
SMILES: CC[C@H](C)[C@@H]1NC(=O)[C@H](Cc2c[nH]c3ccccc23)NC(=O)[C@H]([C@@H](C)CC)NC(=O)[C@H](CC(C)C)NC(=O)[C@H](CC(C)C)NC(=O)c2cccc(c2)CSC[C@@H](C(=O)NCC(N)=O)NC(=O)[C@H](CC(C)C)NC(=O)[C@H]([C@@H](C)CC)NC(=O)[C@H](Cc2ccc(O)cc2)NC(=O)[C@H](CS)NC(=O)[C@H](CC(N)=O)NC(=O)[C@H](CCCCN)NC(=O)[C@H](CO)NC(=O)[C@H](CO)NC(=O)CNC1=O
notes: also called CP1-P11C; cyclic peptide 11
B10: 12 (peptide)
peptide: mBz-LLIWIGSSKNPCILCG-NH2
modifications: thioether N-15
SMILES: CC[C@H](C)[C@@H]1NC(=O)[C@H](Cc2c[nH]c3ccccc23)NC(=O)[C@H]([C@@H](C)CC)NC(=O)[C@H](CC(C)C)NC(=O)[C@H](CC(C)C)NC(=O)c2cccc(c2)CSC[C@@H](C(=O)NCC(N)=O)NC(=O)[C@H](CC(C)C)NC(=O)[C@H]([C@@H](C)CC)NC(=O)[C@H](CS)NC(=O)[C@@H]2CCCN2C(=O)[C@H](CC(N)=O)NC(=O)[C@H](CCCCN)NC(=O)[C@H](CO)NC(=O)[C@H](CO)NC(=O)CNC1=O
notes: also called CP1-Y12C; cyclic peptide 12
B11: 13 (peptide)
peptide: mBz-LLIWIGSSKNPYCLCG-NH2
modifications: thioether N-15
SMILES: CC[C@H](C)[C@@H]1NC(=O)[C@H](Cc2c[nH]c3ccccc23)NC(=O)[C@H]([C@@H](C)CC)NC(=O)[C@H](CC(C)C)NC(=O)[C@H](CC(C)C)NC(=O)c2cccc(c2)CSC[C@@H](C(=O)NCC(N)=O)NC(=O)[C@H](CC(C)C)NC(=O)[C@H](CS)NC(=O)[C@H](Cc2ccc(O)cc2)NC(=O)[C@@H]2CCCN2C(=O)[C@H](CC(N)=O)NC(=O)[C@H](CCCCN)NC(=O)[C@H](CO)NC(=O)[C@H](CO)NC(=O)CNC1=O
notes: also called CP1-I13C; cyclic peptide 13

target: T1, biotinylated-Lys63 linked Di-Ub (UniProt P0CG47 1-76, isopeptide bond between the C-terminal Gly of the distal Ub and Lys63 of the proximal Ub; biotin tag at the N-terminus of the distal Ub); assay: fluorescence-based competitive assay: unlabeled peptide, 5.0 molar equiv., pre-bound to biotinylated Lys63-linked Di-Ub on a streptavidin plate, then competed with CP1-FITC (1 equiv.); signal change relative to 1 (CP1), Y=[1-(a/b)]x100
T1 construct: mature; Immobilised on streptavidin plates or on the SPR CAPture chip; also called K63-linked Di-Ub; biotin-Lys63 linked Di-Ub
Protocol: Streptavidin-coated microplate (96 well plate) was washed with HEPES buffer (50 Mm HEPES, 150 Mm NaCl, pH 7.30) and then in each well incubated 1 μg of biotinylated-Lys63-linked Di-Ub in 100 μl of the same buffer at RT. for 30 min. Additional wells were kept without biotinylated-Lys63-Di-Ub for blank subtraction. After the washing step, peptide standard (CP1) and unlabeled peptides were incubated (5.0 molar equivalent relative to biotin-Lys63-linked Di-Ub) at RT for 30 minutes for saturation binding to the target. Then 1 molar equivalent of FITC labeled peptide-standard (CP1-FITC) relative to biotinylated-Lys63-linked Di-Ub was incubated to compete with unlabeled peptides at RT for 30 min. After releasing bounded peptides on treatment with 6 M Guanidinium chloride (Gnd·HCl), the fluorescence values were measured (λex=480 nm and λem=525 nm). These values were normalized and then calculated the relative change in binding with the following formula:
Y=[1−(a/b)]×100 [0289] Where Y=Signal change relative to the standard (CP1) (in terms of %). [0290] a=Measured signal value of each peptide candidate (in Relative Fluorescence Units). [0291] b=Measured signal value of standard peptide (CP1). The dissociation constant (KD) of fluorescein-labeled peptide (CP1-FITC) was calculated in accordance with the literature procedure (Vamisetti G B et al., 2021).

Binder | binding result
B1 | binds
B2 | binds
B3 | binds
B4 | binds
B5 | binds
B6 | binds
B7 | binds
B8 | binds
B9 | binds
B10 | binds
B11 | binds
